The numbers were not newly measured in PMC6502704, which cites them from elsewhere.

Like-named read-outs stand apart in the source and are kept apart here.

In data set [1] the target is BMAL1 TAD (Mus musculus) (UniProt Q9WTL8).
Data set [2] has the same target. This is another data set of the same source.
Data set [3] addresses BMAL1 577-625 (Mus musculus) (UniProt Q9WTL8).
Data set [4] concerns the target BMAL1 490-625 (Mus musculus) (UniProt Q9WTL8).
Data set [5] concerns the target BMAL1 577-625 (Mus musculus) (UniProt Q9WTL8). This is another data set of the same source.

As a reminder, the Kd is the concentration at which binding is half-saturated. As for CBP KIX (from UniProt P45481), the Kd with BMAL1 TAD (Mus musculus) [1] is 2 µM.
For the substance CRY1 (from UniProt P97784), in the data set with BMAL1 TAD (Mus musculus) [2], the Kd was 10 µM.
For the substance CRY1 CCT (from UniProt P97784), the Kd in data set [3] is 10 µM.
With CRY2 CCT (from UniProt Q9R194), the equilibrium dissociation constant (Kd) in data set [4] and in data set [5] was 10 µM in each case.
